B1: GPIHBP1^Cluster2-neutral: GPIHBP1 mutant with all Glu/Asp replaced by Gln/Asn at residues 19–30 (protein)
chain: QTQQEEEEEDEDHGPDDYNQQNQNQVQQQQTNRLPGGGSRVLLRCYTCKSLPRDERCNLTQNCSHGQTCTTLIAHGNTESGLLTTHSTWCTDSCQPITKTVEGTQVTMTCCQSSLCNVPPWQSSRVQDPTG
modifications: Tyr18 sulfation absent; one bi-antennary N-linked glycosylation; left off: uPAR domain III, N-terminal, cleaved
B2: GPIHBP1^Cluster1-neutral: GPIHBP1 mutant with all Glu/Asp replaced by Gln/Asn at residues 1–17 (protein)
chain: QTQQQQQQQNQNHGPNNYDEEDEDEVEEEETNRLPGGGSRVLLRCYTCKSLPRDERCNLTQNCSHGQTCTTLIAHGNTESGLLTTHSTWCTDSCQPITKTVEGTQVTMTCCQSSLCNVPPWQSSRVQDPTG
modifications: Tyr18 sulfation present in less than 40%; one bi-antennary N-linked glycosylation; left off: uPAR domain III, N-terminal, cleaved

Columns and labels:
[1] = test system: hLPL bound to immobilized heparan sulfate; experiment: GPIHBP1-mediated extraction of LPL from HSPGs (SPR, immobilized heparin dp4 fragments); assay type: binding, human
Source text: To mimic electrostatic conditions found in the sub-endothelial spaces where surface-bound heparan-sulfate proteoglycans (HSPGs) are abundant, we designed a surrogate sensor surface using a streptavidin-coated CM5 sensor chip to capture high densities of biotinylated synthetic heparin dp4 fragments ([28], [29]). The reference surface was loaded with a neutral and non-sulfated fragment (M09 S00 from Iduron), while the active surface was loaded with a negatively charged fragment (M09 S08a from Iduron) containing N- and O-6-linked sulfations on each of the […] glucosamine residues in the DP4 fragment. Only the highly sulfated oligosaccharide bound LPL, and those interactions were transient with high off-rates. Despite the very transient nature of this binding, we created a stable reservoir of hLPL on the sensor surface by combining the fast kinetics of polyelectrolyte interactions with severe mass transport limitation—the latter phenomenon impedes LPL escape from the surface due to the fast rebinding that is favored by the high densities of immobilized heparin fragments (300 fmol/mm^2). For each experiment, 12.5 nM hLPL was loaded for 100 s at a flow rate of 20 μl/min in 10 mM Hepes (pH 7.4), 150 mM NaCl, 4 mM CaCl2, 10% (vol/vol) glycerol, 0.05% (vol/vol) surfactant P20, 1 mg/ml defatted BSA, […], and 0.05% (wt/vol) NaN3.
To compare the ability of GPIHBP1^1–131 and its charge variants to bind and extract hLPL from this dynamic reservoir, we injected twofold serial dilutions of 1.25–200 nM GPIHBP1^1–131; 1.25–200 nM GPIHBP1^Cluster1-neutral; GPIHBP1^Cluster2-neutral; 1.25–200 nM GPIHBP1^34–131; 0.1–1.6 μM GPIHBP1^1–33 with Tyr^18–SO4; or 1.25–200 nM GPIHBP1^34–131 in the presence of 1 μM sulfated GPIHBP1^1–33 for 250 s at 20 μl/min in 10 mM Hepes (pH 7.4), 150 mM NaCl, 4 mM CaCl2, 10% (vol/vol) glycerol, 0.05% (vol/vol) surfactant P20, 0.2 mg/ml fatty acid-free BSA, and 0.05% (wt/vol) NaN3. At the end of each cycle, two consecutive injections of 10 μl 3 M guanidinium chloride regenerated the chip.
GPIHBP1’s ability to displace LPL from its HSPG-bound state in the sub-endothelial spaces is essential for the trans-endothelial trafficking of LPL to the luminal surface of capillary cells ([29]). The importance of the acidic tail in this process is supported by solid evidence from surrogate in vitro models and in vivo studies in gene-edited mice ([28], [29]). It was therefore important to determine the relative impact of the two charge-clusters in GPIHBP1 on their ability to disrupt LPL•HSPG interactions. To gain this insight, we measured the ability of different GPIHBP1 charge variants to displace hLPL from a SPR sensor chip surface coupled with a high density of immobilized small heparin-like fragments ([28]). […]

[2] = test system: mouse LPL; experiment: Native PAGE binding to mouse LPL; settings: 4 µM LPL with 18 µM GPIHBP1, 30 min on ice; Coomassie staining
Experimental: Distinct impacts of disordered acidic clusters in GPIHBP1
To confirm interactions between puri fi ed human GPIHBP11–131, G P IH B P 1 Cluster1-neutral, or GPIHBP1 Cluster2-neutral with human, mouse, and bovine LPL, these protein pairs were incubated for 30 min on ice (4 µM LPL with 18 µM GPIHBP1) before they were analyzed by native PAGE. As th ese concentrations were well above t he K D of 0.2 nM for the wildtype LPL•GPIHBP1 interaction, LPL is saturated with GPIHBP1 in these experiments (1). […]
spect r a for the purified GPIHBP1 variants wer e r ecor ded at 25°C in Helman cuvettes (path- length of 1 mm) with a scan rate of 50 nm/ min c ove r i ng the range of 190- 250 nm, averaging three scans for each protein. Spectra for the pr ote i ns were compared after converting to molar ellipticity using the following equation, […] where, Mw is the molecular weight of the protein, c is the protein concentration in g/l, l is the pat h-length of the cuvette, Nr number of amino acid residues in the protein.
Figure S1 : Binding of GPIHBP1 charge mutants to LPL as assessed by Native PAGE. The electrophoretic mobility of GPIHBP1 variants alone or in presence of purified human LPL ( A), b ovine LPL (B), and murine LPL (C) was assessed by native PAGE followed by Coomassie blue staining. […]

Row | Molecule | competitive displacement of HSPG-bound hLPL (in words) ([1]; 12.5–200 nM GPIHBP1 proteins, 0.1–1.6 μM sulfated GPIHBP1^1–33, or GPIHBP1^34–131 with 1 μM sulfated GPIHBP1^1–33) | binding to mLPL as judged by native PAGE [2] | reduction in hLPL levels on the sensor surface after GPIHBP1 injections (ΔLPL, displaced LPL) ([1]; serial twofold dilutions 12.5–200 nM, 250 s at 20 μl/min, pH 7.4, mean ± SD, n = 3)
1 | B1 | neither dislodged any LPL from the surface | bound | –
2 | B2 | – | bound | 35%
